This assay concerns the target T1, FKBP12 drug-induced heterodimerization domain (DmrA) (Homo sapiens (Human), UniProt P62942 2-108).
T1 construct: also called FKBP12-DmRA; FKBP12 heterodimerizing domain
As to the kind of experiment: drug-induced heterodimerization inside mouse T cells, with 1 µM AP21967; read out as hCD34 surface expression by flow cytometry (FIG. 9B). The text has this: In the instant example, mouse T cells were transduced with the following 2 vectors (FIG. 9A): (Vector 1) encodes a Thy1.1 reporter and a drug-activated intein-tagged antigen-binding construct comprised of a CD19-targeting scFv fused to a hCD34 affinity-tag, a CD8 hinge and transmembrane domain, an AES CL low affinity intein N terminus, an FKBP12 drug-induced heterodimerization domain (DmrA), and an E319K ER retention motif, while (Vector 2) encodes an EGFP reporter and a cytoplasmic signaling shuttle comprised of a FRB drug-induced heterodimerization domain (DmrC), an AES CL low affinity intein C terminus, a CD28 costimulatory domain, and a CD3-zeta chain. In the absence of the dimerizing drug, hCD34 expression at the cell surface is low due to presence of the ER retention motif encoded by Vector1 (FIG. 9B). […] Thus, this system enables drug-regulated splicing to regulate post-translational CAR assembly. Double-transduced cells were cultured with 1 μM A/C heterodimerizing drug and subsequently enriched by MACS sorting using anti-hCD34 magnetic beads to yield highly pure hCD34+CD19-CAR T cells (FIG. 9B). […] This methodology improves upon previous FKBP/FRB-based drug-regulated CAR systems by eliminating the FKBP/FRB proteins following trans-splicing and generating a mature CAR molecule. […]
A general note: A flow cytometer gives signals particle by particle.

T1 sequence (P62942 2-108 limits assumed, one chain of several): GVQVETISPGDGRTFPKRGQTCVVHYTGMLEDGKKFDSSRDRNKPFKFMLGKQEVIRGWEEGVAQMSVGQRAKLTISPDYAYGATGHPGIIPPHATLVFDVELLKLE

B1: FRB* heterodimerization domain (DmrC) (other)
chain: MILWHEMWHEGLEEASRLYFGERNVKGMFEVLEPLHAMMERGPQTLKETSFNQAYGRDLMEAQEWCRKYMKSGNVKDLLQAWDLYYHVFRRISK
notes: also called FRB drug-induced heterodimerization domain (DmrC); FRB (DmrB)
Take B1: the binding result was “binds”.

The values above are taken from patent publication US20250289887A1 (Memorial Sloan Kettering, published 2025).
